Measurements taken from article PMC8706527.
pKd: −log10 of the molar value.

Columns and labels:
[1] = molecular target: recombinant human neonatal Fc receptor (rhFcRn) (human) (UniProt P55899); assay: SPR
[2] = molecular target: recombinant human FcγRIIIa-Phe (human) (UniProt P08637); assay: SPR
Sequence of recombinant human FcγRIIIa-Phe (human) (P08637 17-208): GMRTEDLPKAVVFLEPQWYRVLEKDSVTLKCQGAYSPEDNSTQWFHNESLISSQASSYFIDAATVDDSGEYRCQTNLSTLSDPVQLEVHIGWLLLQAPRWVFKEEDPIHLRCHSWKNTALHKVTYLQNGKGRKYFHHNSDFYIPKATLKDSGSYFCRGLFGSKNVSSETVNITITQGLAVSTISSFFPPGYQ

Sequence of recombinant human neonatal Fc receptor (rhFcRn) (human) (P55899 whole entry, looked up, tested part not stated): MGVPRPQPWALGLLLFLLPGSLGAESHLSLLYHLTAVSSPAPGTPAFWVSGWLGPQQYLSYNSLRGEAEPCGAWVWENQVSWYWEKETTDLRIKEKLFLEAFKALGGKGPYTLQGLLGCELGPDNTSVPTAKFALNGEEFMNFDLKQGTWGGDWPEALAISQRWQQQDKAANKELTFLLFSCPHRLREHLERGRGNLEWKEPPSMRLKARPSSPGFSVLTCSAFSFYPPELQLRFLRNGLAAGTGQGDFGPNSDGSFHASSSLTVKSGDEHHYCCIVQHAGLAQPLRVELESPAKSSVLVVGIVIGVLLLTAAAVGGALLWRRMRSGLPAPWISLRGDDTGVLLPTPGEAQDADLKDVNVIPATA

pKd [1]: 6.71 | kon [1]: 986000 M⁻¹ s⁻¹ | pKd [2]: 5.79
Substance: wild type IgG1 (modified ZRC-3308 mAb with wild type Fc) (antibody)
